The chains are these.
B1: IgG1-F1063 (antibody)
heavy: QVQLQESGPGLVKPSETLSLTCAVSGHSISHDHAWSWVRQPPGEGLEWIGFISYSGITNYNPSLQGRVTISRDNSKNTLYLQMNSLRAEDTAVYYCARSLARTTAMDYWGEGTLVTVSSASTKGPSVFPLAPSSKSTSGGTAALGCLVKDYFPEPVTVSWNSGALTSGVHTFPAVLQSSGLYSLSSVVTVPSSSLGTQTYICNVNHKPSNTKVDKKVEPKSCDKTHTCPPCPAPELLGGPSVFLFPPKPKDTLYISRTPEVTCVVVDVSHEDPEVKFNWYVDGVEVHNAKTKPREEQYNSTYRVVSVLTVLHQDWLNGKEYKCKVSNKALPAPIEKTISKAKGQPREPQVYTLPPSRDELTKNQVSLTCLVKGFYPSDIAVEWESNGQSENNYKTTPPVLDSDGSFFLYSKLTVDKSRWQQGNVFSCSVMHEALHYHVTQKSLSLSP
light: not shown
notes: EU numbering; copies: 2 + 2
B2: IgG1-F1068 (antibody)
heavy: QVQLQESGPGLVKPSETLSLTCAVSGHSISHDHAWSWVRQPPGEGLEWIGFISYSGITNYNPSLQGRVTISRDNSKNTLYLQMNSLRAEDTAVYYCARSLARTTAMDYWGEGTLVTVSSASTKGPSVFPLAPSSKSTSGGTAALGCLVKDYFPEPVTVSWNSGALTSGVHTFPAVLQSSGLYSLSSVVTVPSSSLGTQTYICNVNHKPSNTKVDKKVEPKSCDKTHTCPPCPAPELLGGPSVFLFPPKPKDTLYISRTPEVTCVVVDVSHEDPEVKFNWYVDGVEVHNAKTKPREEQYNSTYRVVSVLTVLHQDWLNGKEYKCKVSNKALPAPIEKTISKAKGQPREPQVYTLPPSRDELTKNQVSLTCLVKGFYPSDIAVEWESNGQPENNYKTTPPVLDSDGSFFLYSKLTVDKSRWQQGNVFRCSVMHEALHYHVTQKSLSLSP
light: not shown
notes: EU numbering; copies: 2 + 2
B3: IgG1-F1077 (antibody)
heavy: QVQLQESGPGLVKPSETLSLTCAVSGHSISHDHAWSWVRQPPGEGLEWIGFISYSGITNYNPSLQGRVTISRDNSKNTLYLQMNSLRAEDTAVYYCARSLARTTAMDYWGEGTLVTVSSASTKGPSVFPLAPSSKSTSGGTAALGCLVKDYFPEPVTVSWNSGALTSGVHTFPAVLQSSGLYSLSSVVTVPSSSLGTQTYICNVNHKPSNTKVDKKVEPKSCDKTHTCPPCPAPELLGGPSVFLFPPKPNDTLYISRTPEVTCVVVDVSHEDPEVKFNWYVDGVEVHNAKTKPREEQYNSTYRVVSVLTVLHQDWLNGKEYKCKVSNKALPAPIEKTISKAKGQPREPQVYTLPPSRDELTKNQVSLTCLVKGFYPSDIAVEWESNGQPENNYKTTPPVLDSDGSFFLYSKLTVDKSRWQQGNVFSCSVMHEALHYHYTQKSLSLSP
light: not shown
notes: EU numbering; copies: 2 + 2
B4: IgG1-F1070 (antibody)
heavy: QVQLQESGPGLVKPSETLSLTCAVSGHSISHDHAWSWVRQPPGEGLEWIGFISYSGITNYNPSLQGRVTISRDNSKNTLYLQMNSLRAEDTAVYYCARSLARTTAMDYWGEGTLVTVSSASTKGPSVFPLAPSSKSTSGGTAALGCLVKDYFPEPVTVSWNSGALTSGVHTFPAVLQSSGLYSLSSVVTVPSSSLGTQTYICNVNHKPSNTKVDKKVEPKSCDKTHTCPPCPAPELLGGPSVFLFPPKPKDTLYISRTPEVTCVVVDVSHEDPEVKFNWYVDGVEVHNAKTKPREEQYNSTYRVVSVLTVLHQDWLNGKEYKCKVSNKALPAPIEKTISKAKGQPREPQVYTLPPSRDELTKNQVSLTCLVKGFYPSDIAVEWESNGQPENNYKTTPPVLDSDGSFFLYSKLTVDKSRWQQGNVFSCSVMHEALHYHVTRKSLSLSP
light: not shown
notes: EU numbering; copies: 2 + 2
B5: IgG1-F1073 (antibody)
heavy: QVQLQESGPGLVKPSETLSLTCAVSGHSISHDHAWSWVRQPPGEGLEWIGFISYSGITNYNPSLQGRVTISRDNSKNTLYLQMNSLRAEDTAVYYCARSLARTTAMDYWGEGTLVTVSSASTKGPSVFPLAPSSKSTSGGTAALGCLVKDYFPEPVTVSWNSGALTSGVHTFPAVLQSSGLYSLSSVVTVPSSSLGTQTYICNVNHKPSNTKVDKKVEPKSCDKTHTCPPCPAPELLGGPSVFLFPPKPKDTLYISRTPEVTCVVVDVSHEDPEVKFNWYVDGVEVHNAKTKPREEQYNSTYRVVSVLTVLHQDWLNGKEYKCKVSNKALPAPIEKTISKAKGQPREPQVYTLPPSRDELTKNQVSLTCLVKGFYPSDIAVEWESNGQPENNYKTTPPVLDSDGSFFLYSKLTVDKSRWQQGNVFSCSVMHEALHYHVTQKRLSLSP
light: not shown
notes: EU numbering; copies: 2 + 2
B6: IgG1-F1074 (antibody)
heavy: QVQLQESGPGLVKPSETLSLTCAVSGHSISHDHAWSWVRQPPGEGLEWIGFISYSGITNYNPSLQGRVTISRDNSKNTLYLQMNSLRAEDTAVYYCARSLARTTAMDYWGEGTLVTVSSASTKGPSVFPLAPSSKSTSGGTAALGCLVKDYFPEPVTVSWNSGALTSGVHTFPAVLQSSGLYSLSSVVTVPSSSLGTQTYICNVNHKPSNTKVDKKVEPKSCDKTHTCPPCPAPELLGGPDVFLFPPKPKDTLYISRTPEVTCVVVDVSHEDPEVKFNWYVDGVEVHNAKTKPREEQYNSTYRVVSVLTVLHQDWLNGKEYKCKVSNKALPAPIEKTISKAKGQPREPQVYTLPPSRDELTKNQVSLTCLVKGFYPSDIAVEWESNGQPENNYKTTPPVLDSDGSFFLYSKLTVDKSRWQQGNVFSCSVMHEALHYHVTQKSLSLSP
light: not shown
notes: EU numbering; copies: 2 + 2
B7: IgG1-F1064 (antibody)
heavy: QVQLQESGPGLVKPSETLSLTCAVSGHSISHDHAWSWVRQPPGEGLEWIGFISYSGITNYNPSLQGRVTISRDNSKNTLYLQMNSLRAEDTAVYYCARSLARTTAMDYWGEGTLVTVSSASTKGPSVFPLAPSSKSTSGGTAALGCLVKDYFPEPVTVSWNSGALTSGVHTFPAVLQSSGLYSLSSVVTVPSSSLGTQTYICNVNHKPSNTKVDKKVEPKSCDKTHTCPPCPAPELLGGPSVFLFPPKPKDTLYISRTPEVTCVVVDVSHEDPEVKFNWYVDGVEVHNAKTKPREEQYNSTYRVVSVLTVLHQDWLNGKEYKCKVSNKALPAPIEKTISKAKGQPREPQVYTLPPSRDELTKNQVSLTCLVKGFYPSDIAVEWESNGQPENNYKTTPPVLDSDGSFFLYSKLTVDKSRWQQGNEFSCSVMHEALHYHVTQKSLSLSP
light: not shown
notes: EU numbering; copies: 2 + 2
B8: IgG1-F1067 (antibody)
heavy: QVQLQESGPGLVKPSETLSLTCAVSGHSISHDHAWSWVRQPPGEGLEWIGFISYSGITNYNPSLQGRVTISRDNSKNTLYLQMNSLRAEDTAVYYCARSLARTTAMDYWGEGTLVTVSSASTKGPSVFPLAPSSKSTSGGTAALGCLVKDYFPEPVTVSWNSGALTSGVHTFPAVLQSSGLYSLSSVVTVPSSSLGTQTYICNVNHKPSNTKVDKKVEPKSCDKTHTCPPCPAPELLGGPSVFLFPPKPKDTLYISRTPEVTCVVVDVSHEDPEVKFNWYVDGVEVHNAKTKPREEQYNSTYRVVSVLTVLHQDWLNGKEYKCKVSNKALPAPIEKTISKAKGQPREPQVYTLPPSRDELTKNQVSLTCLVKGFYPSDIAVEWESNGQPENNYKTTPPVLDSDGSFFLYSKLTVDKSRWQQGNVFECSVMHEALHYHVTQKSLSLSP
light: not shown
notes: EU numbering; copies: 2 + 2
B9: IgG1-F1065 (antibody)
heavy: QVQLQESGPGLVKPSETLSLTCAVSGHSISHDHAWSWVRQPPGEGLEWIGFISYSGITNYNPSLQGRVTISRDNSKNTLYLQMNSLRAEDTAVYYCARSLARTTAMDYWGEGTLVTVSSASTKGPSVFPLAPSSKSTSGGTAALGCLVKDYFPEPVTVSWNSGALTSGVHTFPAVLQSSGLYSLSSVVTVPSSSLGTQTYICNVNHKPSNTKVDKKVEPKSCDKTHTCPPCPAPELLGGPSVFLFPPKPKDTLYISRTPEVTCVVVDVSHEDPEVKFNWYVDGVEVHNAKTKPREEQYNSTYRVVSVLTVLHQDWLNGKEYKCKVSNKALPAPIEKTISKAKGQPREPQVYTLPPSRDELTKNQVSLTCLVKGFYPSDIAVEWESNGQPENNYKTTPPVLDSDGSFFLYSKLTVDKSRWQQGNRFSCSVMHEALHYHVTQKSLSLSP
light: not shown
notes: EU numbering; copies: 2 + 2
B10: IgG1-F1069 (antibody)
heavy: QVQLQESGPGLVKPSETLSLTCAVSGHSISHDHAWSWVRQPPGEGLEWIGFISYSGITNYNPSLQGRVTISRDNSKNTLYLQMNSLRAEDTAVYYCARSLARTTAMDYWGEGTLVTVSSASTKGPSVFPLAPSSKSTSGGTAALGCLVKDYFPEPVTVSWNSGALTSGVHTFPAVLQSSGLYSLSSVVTVPSSSLGTQTYICNVNHKPSNTKVDKKVEPKSCDKTHTCPPCPAPELLGGPSVFLFPPKPKDTLYISRTPEVTCVVVDVSHEDPEVKFNWYVDGVEVHNAKTKPREEQYNSTYRVVSVLTVLHQDWLNGKEYKCKVSNKALPAPIEKTISKAKGQPREPQVYTLPPSRDELTKNQVSLTCLVKGFYPSDIAVEWESNGQPENNYKTTPPVLDSDGSFFLYSKLTVDKSRWQQGNVFSCSVMHEALHYHVTEKSLSLSP
light: not shown
notes: EU numbering; copies: 2 + 2
B11: IgG1-F1075 (antibody)
heavy: QVQLQESGPGLVKPSETLSLTCAVSGHSISHDHAWSWVRQPPGEGLEWIGFISYSGITNYNPSLQGRVTISRDNSKNTLYLQMNSLRAEDTAVYYCARSLARTTAMDYWGEGTLVTVSSASTKGPSVFPLAPSSKSTSGGTAALGCLVKDYFPEPVTVSWNSGALTSGVHTFPAVLQSSGLYSLSSVVTVPSSSLGTQTYICNVNHKPSNTKVDKKVEPKSCDKTHTCPPCPAPELLGGPSVFLFPPKPKDTLYISRTPEVTCVVVDVSHEDPEVKFNWYVDGVEVHNAKTKPREEQYNSTYRVVSVLTVLHQDWLNGKEYKCKVSNDAYPAPIEKTISKAKGQPREPQVYTLPPSRDELTKNQVSLTCLVKGFYPSDIAVEWESNGQPENNYKTTPPVLDSDGSFFLYSKLTVDKSRWQQGNVFSCSVMHEALHYHVTQKSLSLSP
light: not shown
notes: EU numbering; copies: 2 + 2
B12: IgG1-F1066 (antibody)
heavy: QVQLQESGPGLVKPSETLSLTCAVSGHSISHDHAWSWVRQPPGEGLEWIGFISYSGITNYNPSLQGRVTISRDNSKNTLYLQMNSLRAEDTAVYYCARSLARTTAMDYWGEGTLVTVSSASTKGPSVFPLAPSSKSTSGGTAALGCLVKDYFPEPVTVSWNSGALTSGVHTFPAVLQSSGLYSLSSVVTVPSSSLGTQTYICNVNHKPSNTKVDKKVEPKSCDKTHTCPPCPAPELLGGPSVFLFPPKPKDTLYISRTPEVTCVVVDVSHEDPEVKFNWYVDGVEVHNAKTKPREEQYNSTYRVVSVLTVLHQDWLNGKEYKCKVSNKALPAPIEKTISKAKGQPREPQVYTLPPSRDELTKNQVSLTCLVKGFYPSDIAVEWESNGQPENNYKTTPPVLDSDGSFFLYSKLTVDKSRWQQGNSFSCSVMHEALHYHVTQKSLSLSP
light: not shown
notes: EU numbering; copies: 2 + 2

In this experiment the target is T1, soluble human FcRn complexed with β2-microglobulin (human, UniProt P61769 21-119, limits assumed).
T1 construct: also called hFcRn
T1 sequence (chain, as listed by the source limits assumed, chain 1 of 2): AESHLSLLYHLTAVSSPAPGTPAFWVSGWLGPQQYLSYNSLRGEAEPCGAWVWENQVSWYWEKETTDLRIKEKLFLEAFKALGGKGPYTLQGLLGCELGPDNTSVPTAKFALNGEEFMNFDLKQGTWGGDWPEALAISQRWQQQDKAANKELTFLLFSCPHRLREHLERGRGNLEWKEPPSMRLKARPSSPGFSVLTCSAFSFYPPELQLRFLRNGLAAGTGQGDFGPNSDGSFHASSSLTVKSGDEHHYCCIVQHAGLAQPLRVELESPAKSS
T1 sequence (P61769 21-119 limits assumed, chain 2 of 2): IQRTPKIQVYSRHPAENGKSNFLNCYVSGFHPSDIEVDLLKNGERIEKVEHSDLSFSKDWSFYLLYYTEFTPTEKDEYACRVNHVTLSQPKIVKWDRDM
As to the kind of experiment: Biacore SPR, pH 7.0.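 Note: test antibodies captured on a Protein L chip with human FcRn flowed over as analyte, KD obtained as the ratio of dissociation to association rate constants.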 For orientation: In SPR one partner is held on a chip, and binding of the other changes the refractive index at the surface.
Turning to B1, the Kd was determined as 143 nM.
With B2 the figure was 169 nM.
B3 yielded a Kd of 2030 nM. This Kd lies about 12-fold higher than the previous one.
With B4 the figure was 173 nM; with B5, 134 nM.
For B6 the value was 132 nM; for B7, 132 nM; for B8, 126 nM.
For B9 the value was 138 nM; for B10, 139 nM.
B11: binding was characterised by a dissociation constant (Kd) of 140 nM.
With B12 the figure was 145 nM.

Broadly, the Kd is a measure of binding affinity in units of concentration. A high value points to weaker binding.
